Laboratory results: US20110081354A1 (Bristol-Myers Squibb, published 2011)
Residue numbers refer to the chain shown, from its start.

How the values were obtained:
[1] = target: T1, chimeric CTLA-4 protein comprising the extracellular and transmembrane domains of human CTLA-4 linked to the … (human; murine, UniProt P16410 36-187; P24161 52-164, limits assumed); assay: flow cytometry on cells expressing chimeric human CTLA-4/CD3zeta; PE anti-human IgG detection
T1 construct: domain: extracellular and transmembrane domains;domain: intracellular domain; also called cell surface CTLA4; hCTLA4+ cells

[2] = target: T2, CTLA-4-Ig fusion protein comprising the extracellular domain of human CTLA-4 fused to the Fc region of human … (human, UniProt P16410 36-161); assay: blocking assay, flow cytometry: inhibition of CTLA-4-Ig binding to mouse B7-1 expressing cells
T2 construct: extracellular domain; also called CTLA-4 Hu Ig; soluble human CTLA-4 fusion protein; not shown: Fc region of human immunoglobulin
T2 sequence (looked up): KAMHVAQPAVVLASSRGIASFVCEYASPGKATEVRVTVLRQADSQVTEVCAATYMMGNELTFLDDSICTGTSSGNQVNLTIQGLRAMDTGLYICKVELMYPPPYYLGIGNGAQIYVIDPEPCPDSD

B1: 3A4 human monoclonal antibody (antibody, V domains shown)
VH: QVQVVESGGGVVQPGRSLRLSCAASGFTFSSYGMHWVRQAPGKGLEWVAVIWYDGSNKYYVDSVKGRFTISRDNSKNTLYLQMNSLRAEDTAVYYCARGPGYSSSFDYWGQGTLVTVSS
VL: DIQMTQSPSSLSASVGDRVTITCRASQGISSWLAWYQQKPEKAPKSLIYAASSLQSGVPSRFSGSGSGTDFTLTISSLQPEDFATYYCQQYNSYPLTFGGGTKVEIK
notes: Purified human IgG kappa antibody from a hybridoma (HuMab mouse); also called mAb 3A4
For B1, which EC50 [1] is on record?
The EC50 was 0.661 nM.

What about the EC50 [2] of the same binder?
The EC50 was 7.41 nM.

B2: 6C10 human monoclonal antibody (antibody, V domains shown)
VH: B1 VH with V4L, A23T, Y32H, I51V, Y53F, P100S, S105G
VL: B1 VL
notes: Purified human IgG kappa antibody from a hybridoma (HuMab mouse); also called mAb 6C10
With B2 as the binder, how does the EC50 [1] read?
The EC50 was 0.247 nM.

And the EC50 [2]?
Its EC50 is 15.3 nM.
